According to patent US20240218057A1 (ROCKEFELLER UNIVERSITY, published 2024):
Where a chain is given by its changes, count along the chain named.

B1: C1010 (antibody, V domains shown)
VH: QVQLVESGGGVVQPGRSLRLSCAASGFTFSSYAMHWVRQAPGKGLEWVAVISYDGSNKYYADSVKGRFTISRDNSKNTLYLQMNSLRAEDTAVYYCAKKGQPYCGGDCYFYYFDYWGQGTLVTVSS
VL: DIQMTQSPSSLSASLGDRVTITCQASQDISNYLNWYQQKPGKAPKLLIYDASNLETGVPSRFSGSGSGTDFTFTISSLQPEDIATYYCQQYDNLPPITFGQGTRLEIK
notes: IgG; V domains only
B2: C1011 (antibody, V domains shown)
VH: QVQLVESGGGVVQPGRSLRLSCAVSGFTFSHYAMHWVRQAPGKGLEWVAVISYDGADKYYADSVRGRFTIARDNSKNTLFLQMSSLRPEDTAVYYCAKKGQPYCGGDCHFYYLDYWGQGTLVTVSS
VL: B1 VL with L15V, Y32H, P80A
notes: IgG; V domains only
B3: C1016 (antibody, V domains shown)
VH: QVQLQESGPGLVKPSGTLSLTCAVSGGPISSNHWWSWVRQPPGKGLEWIGEVYRNGNTNYHPSLKSRVTMSIDNSKNQFSLSLTSVTAADTAVYYCARGGDLAMGPEYLDFWGQGTLVTVSS
VL: QSALTQPASVSGSPGQSITISCTGTSSDVGANNYVSWYQQHPGKAPKLMIYDVINRPSGVSDRFSGSKSGNTASLTISGLQAEDEADYYCSSFSTSSTLLFGGGTKLTVL
notes: IgG; V domains only
B4: C1018 (antibody, V domains shown)
VH: QVQLVESGGGVVQPGRSLRLLCAASGFTFNTHGMHWVRQAPGKGLEWVAVIWFDGSNKYYADSVKGRFTISRDNSTNTLYLQMNSLRAEDTAVYYCARVYGGLPYYYAIDVWGQGTTVTVSS
VL: QSVLTQPPSVSGAPGQRVTISCAGSSSNIGAGYGVHWSQQLPGRPPKLLIYGDSNRPSGVPDRFSGSNSGTSASLAITGLQAEDEAVYYCQSYDRSLRAWVFGGGTKLSVL
notes: IgG; V domains only
B5: C1012 (antibody, V domains shown)
VH: QVQLVQSGAEVKKPGSSVKVSCKASGGTVNNYAINWVRQAPGQGLEWMGGIVPIFGTPNYAQKFQGRVTITADESTSTAYMELSSLRSEDTAVYYCAKVSLTLPIAAAPRFWFDSWGQGTLVTVSS
VL: EIVMTQSPATLSVSPGERATLSCRASQSVSSHLAWYQQKPGQAPRLLIYGASTRATGIPARFSGSGSGTEFTLTISSLQSEDFAVYYCQQYHNWPPALTFGGGTKVEIK
notes: IgG; V domains only
B6: C1013 (antibody, V domains shown)
VH: QVQLVQSGVEVKKPGSSVKVSCKASGGTFTDYAFSWVRQAPGQGLEWMGGIVPIFATPDYAEKFRGRVTITADESTSTAYMELSTLKSEDTAVYYCARASLTLPIRAAPRFWFDAWGQGTLVTVSS
VL: B5 VL with S28G, S31T, N93K
notes: IgG; V domains only
B7: C1014 (antibody, V domains shown)
VH: QVQLQESGPGLVRPSQTLSLTCTVSGGSIGSGAYWSWIRQHPAKGLEWIGYVYYSGSTFYNPSLETRVSISVDISKDQFSLELTSVTVADTAVYYCAREKIEVVSIEMRPHYYGIDVWGQGTTVTVSS
VL: EIVMTQSPATLSVSPGERATLSCRASQSISSNLAWYQQKPGQPPRLLIYGASTRATGIPARFSGSGSGTEFTLTISSLQSEDIAVYYCQHYNNWPPWTFGQGTKVDIK
notes: IgG; V domains only
B8: C1008 (antibody, V domains shown)
VH: EVQLVESGGGLIQPGGSLRLSCAASGFTVSSNYMSWVRQAPGKGLEWVSVIYSGGSTYYADSVKGRFTISRDNSKNTLYLQMNSLRAEDTAVYYCARVVGYDFWSGYDGGYFDYWGQGTLVTVSS
VL: QSALTQPASVSGSPGQSITISCTGTSSDVGSYNLVSWYQQHPGKAPKLMIYEVSKRPSGVSNRFSGSKSGNTASLTISGLQAEDEADYYCCSYAGSSTWVFGGGTKLTVL
notes: IgG; V domains only
B9: C1009 (antibody, V domains shown)
VH: EVQLVESGGGLLQPGGSLRLSCAASGFSVSSNYMTWVRQAPGKGLEWVAAIYSGDSTYYVDSVKGRFIISRDNSKNTVYLHLSSLRAEDTAVYYCARLVGYDFRSGSDGGYFDYWGHGTLVTVSS
VL: B8 VL with V29I, S31N, E52D, A86T
notes: IgG; V domains only

biological target: T1, SARS-COV-2 RBD (SARS-COV-2, UniProt P0DTC2 319-539); assay: ELISA, RBD coated
T1 construct: also called WT RBD

Binder	EC50 [ng/mL]
B1	2.45
B2	1.49
B3	2.16
B4	3.09
B5	3.29
B6	8.92
B7	2.95
B8	17.2
B9	1.34
